# Assay results taken from patent publication US20230391882A1 (NUMAB THERAPEUTICS, published 2023).
# Where two headings read alike, the source gives them in different places.
# Columns and labels:
# Test in all cases: cell-based or functional assay
# [1] = molecular target: T1, human CD137 on the transgenic NF-kB Jurkat reporter cell line (human, UniProt Q07011 24-255)
# human PDL1 [2] = molecular target: T2, human PDL1 (human, UniProt Q9NZQ7 19-238, limits assumed)
# [3] = molecular target: T3, mesothelin (MSLN) on target cells (H226, MeT-5A) (UniProt Q13421 37-598, limits assumed)
# [4] = molecular target: T3, mesothelin (MSLN) on target cells …; remark: listed apart in the source
# [5] = molecular target: T3, mesothelin (MSLN) on target cells …; remark: listed apart in the source
# [6] = molecular target: T3, mesothelin (MSLN) on target cells …; remark: listed apart in the source
# [7] = molecular target: T3, mesothelin (MSLN) on target cells …; remark: listed apart in the source
# [8] = molecular target: T3, mesothelin (MSLN) on target cells …; remark: listed apart in the source
# [9] = molecular target: soluble mesothelin (sMSLN) (UniProt Q13421 296-580, limits assumed)
# [10] = molecular target: T3, mesothelin (MSLN) on target cells …; remark: listed apart in the source
# [11] = molecular target: T3, mesothelin (MSLN) on target cells …; remark: listed apart in the source
# [12] = molecular target: T3, mesothelin (MSLN) on target cells …; remark: listed apart in the source
# [13] = molecular target: T1, human CD137 on the transgenic NF-kB …; remark: listed apart in the source
# human PDL1 [14] = molecular target: T2, human PDL1; remark: listed apart in the source
# [15] = molecular target: T1, human CD137 on the transgenic NF-kB …; remark: listed apart in the source
# human PDL1 [16] = molecular target: T2, human PDL1; remark: listed apart in the source
binder,measurement,setting,value
PRO1480 (38-27-A11 sc02 scDb-i/37-20-B03 sc09.1 scDb-o/19-01-H04 sc03 scFv) (other) DIQMTQSPASLSASVGDRVTITCQASQSIGTYLAWYQQKPGKPPKLLIYRAFILASGVPSRFSGSGSGTDFTLTISSLQPEDFATYYCQSNFYSDSTTIGPNAFGTGTKVTVLGGGGGSEVQLVESGGGLVQPGGSLRLSCAASGFSFSANYYPCWVRQAPGKGLEWIGCIYGGSSDITYDANWTKGRFTISRDNSKNTVYLQMNSLRAEDTAVYYCARSAWYSGWGGDLWGQGTLVTVSSGGGGSGGGGSGGGGSGGGGSIQMTQSPSSLSASVGDRVTITCQASQSISNRLAWYQQKPGKAPKLLIYSASTLASGVPSRFSGSGSGTDFTLTISSLQPEDFATYYCQSTYYGNDGNAFGTGTKVTVLGGGGGSEVQLVESGGGLVQPGGSLRLSCAASGFSFNSDYWIYWVRQAPGKGLEWIASIYGGSSGNTQYASWAQGRFTISRDNSKNTVYLQMNSLRAEDTAVYFCARGYVDYGGATDLWGQGTLVTVSSGGGGSGGGGSIQMTQSPSSLSASVGDRVTITCQSSESVYSNNQLSWYQQKPGQPPKLLIYDASDLASGVPSRFSGSGSGTDFTLTISSLQPEDFATYYCAGGFSSSSDTAFGGGTKLTVLGGGGGSGGGGSGGGGSGGGGSEVQLVESGGGLVQPGGSLRLSCAASGFSLSSNAMGWVRQAPGKGLEYIGIISVGGFTYYASWAKGRFTISRDNSKNTVYLQMNSLRAEDTATYFCARDRHGGDSSGAFYLWGQGTLVTVSS,EC50 (read off the curve); NF-kB reporter gene assay,[1],~70 pM
same,"IC50 (read off the curve); NFAT reporter gene assay, blocked ligand PD-1",human PDL1 [2],~500 pM
PRO2000 (biMSLNlow affinity x CD3 x hSA) (other) chain 1: DIQMTQSPSSLSASVGDRVTITCQASQNIYSNLAWYQQKPGKAPKLLIYDASDLASGVPSRFSGSGSGTDFTLTISSLQPEDFATYYCQQVRSSSDIDNPFGTGTKVTVLGGGGGSGGGGSGGGGSGGGGSQVQLVESGGGLVQPGGSLRLSCAASGFSLSSYAMGWVRQAPGKGLEWIGYISTINNTYYASWAKGRFTISRDNSKNTVYLQMNSLRAEDTAVYYCAREIRSGWVDYGFSIWGQGTLVTVSSGGGGSGGGGSEVQLVESGGGLVQPGGSLRLSCAASGFSLSSYDMSWVRQAPGKGLAWIGASYASGPTYYASWAKGRFTISRDNSKNTVYLQMNSLRAEDTATYFCARGGWTGTSHSNIWGQGTLVTVSSGGGSGGGSEVQLVESGGGLVQPGGSLRLSCAASGFSFSSSYWICWVRQAPGKCLEWVGCVFTGDGTTYYASWAKGRFTISRDNSKNTVYLQMNSLRAEDTATYFCARPVSVYYYGMDLWGQGTLVTVSS chain 2: DIQMTQSPSSLSASVGDRVTITCQASQNIYSNLAWYQQKPGKAPKLLIYDASDLASGVPSRFSGSGSGTDFTLTISSLQPEDFATYYCQQVRSSSDIDNPFGTGTKVTVLGGGGGSGGGGSGGGGSGGGGSQVQLVESGGGLVQPGGSLRLSCAASGFSLSSYAMGWVRQAPGKGLEWIGYISTINNTYYASWAKGRFTISRDNSKNTVYLQMNSLRAEDTAVYYCAREIRSGWVDYGFSIWGQGTLVTVSSGGGGSGGGGSDVVMTQSPSSLSASVGDRVTITCQASQIISSRSAWYQQKPGQPPKLLIYQASKLASGVPSRFSGSGSGTDFTLTISSLQPEDFATYYCQCTYIDSNFGAFGCGTKLTVLGGGSGGSDIQMTQSPSSLSASVGDRVTITCQSSQSVFSNNYLAWFQQKPGQSPKRLIYSASTLASGVPSRFSGSGSGTDFTLTISSLQPEDFATYYCLGSYACSSADCYVFGTGTKVTVLG,"EC50 (read off the curve); activated CD8+ cells (CD69+) with H226 cells, without sMSLN",[3],~2 pM
same,"EC50 (read off the curve); specific killing of H226 cells, no sMSLN",[4],~10 pM
same,EC50 (read off the curve); specific killing of MeT-5A cells (low MSLN),[5],~100 pM
same,"EC50 (read off the curve); activated CD8+ cells (CD69+) with H226 cells, with 50 ng/ml sMSLN",[6],~8 pM
same,"EC50 (read off the curve); specific killing of H226 cells, in presence of 500 ng/ml sMSLN",[7],~200 pM
same,T-cell driven cytotoxicity assay: EC50 for killing high MSLN expressing target cells against EC50 for killing MeT-5A cells,[8],≥ 25 fold
same,specific killing of high MSLN expressing H226 cells by PBMCs in the presence of human serum albumin; killing potency against that of PRO1872,[8],75 fold
same,decrease of potency of T-cell driven target cell killing in the presence of 500 ng/ml soluble MSLN,[9],17 fold
same,increase of EC50 for killing high MSLN expressing target cells in the presence of 50 ng/ml sMSLN,[9],≤ 6 fold
same,increase of EC50 for killing high MSLN expressing target cells in the presence of 500 ng/ml sMSLN,[9],≤ 40 fold
same,EC50 (read off the curve); specific killing of H226 cells (high MSLN),[10],~0.07 pM
same,"EC50 (read off the curve); specific killing of H226 cells, in presence of 50 ng/ml sMSLN",[11],~30 pM
same,"EC50 (read off the curve); activated CD8+ cells (CD69+) with H226 cells, with 500 ng/ml sMSLN",[12],~40 pM
PRO1124 (38-02-A04 sc06 Full scDb-i/33-03-G02 sc01 scDb-o) (bispecific antibody) DIQMTQSPSSLSASVGDRVTITCQASQSINDYLAWYQQKPGKAPKLLIYKASTLASGVPSRFSGSGSGTDFTLTISSLQPEDFATYYCQQGYIITDIDNVFGTGTKVTVLGGGGGSQVQLQESGPGLVKPSETLSLTCKASGFSFSNSYWICWVRQPPGKGLEWIGCTFVGSSDSTYYANWAKGRVTISKDSSKNQVSLKLSSVTAADTAVYFCARHPSDAVYGYANNLWGQGTLVTVSSGGGGSGGGGSGGGGSGGGGSLQMTQSPSSLSASVGDRVTITCQASQSINNVLAWYQQKPGKPPKLLIYRASTLASGVPSRFSGSGSGTDFTLTISSLQPEDFATYYCQSSYGNYGDFGTGTKVTVLGGGGGSQVQLQESGPGLVKPSETLSLTCKVSGFSFSSGYDMCWIRQPPGKGLEWIGCVVAGSVDITYYASWAKGRVTISVDSSKNQFSLKLSSVTAADTAVYYCARKDAYSDAFNLWGQGTLVTVSS,"EC50 (read off the curve); NF-kB reporter gene assay, rising part of the curve",[13],~100 pM
same,"IC50 (read off the curve); NFAT reporter gene assay, blocked ligand PD-1",human PDL1 [14],~1000 pM
PRO885 (38-02-A04 sc01 scDb-i/33-03-G02 sc01 scDb-o) (bispecific antibody) DIQMTQSPSSLSASVGDRVTITCQASQSINDYLAWYQQKPGKAPKLLIYKASTLASGVPSRFSGSGSGTDFTLTISSLQPEDFATYYCQQGYIITDIDNVFGTGTKVTVLGGGGGSQVQLQESGPGLVKPSETLSLTCKVSGFSFSNSYWICWIRQPPGKGLEWIGCTFVGSSDSTYYANWAKGRVTISVDSSKNQFSLKLSSVTAADTAVYYCARHPSDAVYGYANNLWGQGTLVTVSSGGGGSGGGGSGGGGSGGGGSIQMTQSPSSLSASVGDRVTITCQASQSINNVLAWYQQKPGKAPKLLIYRASTLASGVPSRFSGSGSGTDFTLTISSLQPEDFATYYCQSSYGNYGDFGTGTKVTVLGGGGGSQVQLQESGPGLVKPSETLSLTCKVSGFSFSSGYDMCWIRQPPGKGLEWIGCVVAGSVDITYYASWAKGRVTISVDSSKNQFSLKLSSVTAADTAVYYCARKDAYSDAFNLWGQGTLVTVSS,"EC50 (read off the curve); NF-kB reporter gene assay, rising part of the curve",[15],~300 pM
same,"IC50 (read off the curve); NFAT reporter gene assay, blocked ligand PD-1",human PDL1 [16],~2000 pM
